Test results: patent publication US20220298218A1 (ANTAG THERAPEUTICS, published 2022)
*1 amine or outer side, *2 acyl side, *3 side chain or, on linkers, in order; H or OH if unused. Where no end group is shown, it is not given here. Side-chain parts run from the residue outwards. [ ]: non-standard residue; d: D form. The star is where a group is joined. C18 diacid = O=C(O)CCCCCCCCCCCCCCCCC(=O)*; C16 diacid = O=C(O)CCCCCCCCCCCCCCC(=O)*; γGlu = O=C(O)[C@H](CCC(=O)[*:2])N[*:1]; Glutaryl = O=C(CCCC(=O)[*:2])[*:1]; Nle = CCCC[C@H](N)C(=O)O; AEEA = NCCOCCOCC(=O)O; Aib = CC(C)(N)C(=O)O

T1: human GIP receptor (human, UniProt P48546 22-466)
T1 sequence (looked up): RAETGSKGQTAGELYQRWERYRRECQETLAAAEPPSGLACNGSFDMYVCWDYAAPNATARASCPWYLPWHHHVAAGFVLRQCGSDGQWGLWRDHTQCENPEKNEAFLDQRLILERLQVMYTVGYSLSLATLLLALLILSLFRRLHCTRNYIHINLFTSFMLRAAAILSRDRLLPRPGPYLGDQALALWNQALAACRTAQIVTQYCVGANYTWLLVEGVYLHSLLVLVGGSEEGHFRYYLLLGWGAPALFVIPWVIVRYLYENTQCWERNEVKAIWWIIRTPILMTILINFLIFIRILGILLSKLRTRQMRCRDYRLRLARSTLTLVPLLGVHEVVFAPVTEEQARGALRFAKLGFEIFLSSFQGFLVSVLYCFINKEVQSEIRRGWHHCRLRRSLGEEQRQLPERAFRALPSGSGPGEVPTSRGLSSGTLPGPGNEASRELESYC

B1: AT673 (peptide)
peptide: EGTFISEYSI[Aib]LEKIK(C16 diacid)QQEFVEWLLAQKPSSGAPPPS-OH
modifications: N-terminus assumed
SMILES: CC[C@H](C)[C@H](NC(=O)[C@H](CCCCN)NC(=O)[C@H](CCC(=O)O)NC(=O)[C@H](CC(C)C)NC(=O)C(C)(C)NC(=O)[C@@H](NC(=O)[C@H](CO)NC(=O)[C@H](Cc1ccc(O)cc1)NC(=O)[C@H](CCC(=O)O)NC(=O)[C@H](CO)NC(=O)[C@@H](NC(=O)[C@H](Cc1ccccc1)NC(=O)[C@@H](NC(=O)CNC(=O)[C@@H](N)CCC(=O)O)[C@@H](C)O)[C@@H](C)CC)[C@@H](C)CC)C(=O)N[C@@H](CCCCNC(=O)CCCCCCCCCCCCCCC(=O)O)C(=O)N[C@@H](CCC(N)=O)C(=O)N[C@@H](CCC(N)=O)C(=O)N[C@@H](CCC(=O)O)C(=O)N[C@@H](Cc1ccccc1)C(=O)N[C@H](C(=O)N[C@@H](CCC(=O)O)C(=O)N[C@@H](Cc1c[nH]c2ccccc12)C(=O)N[C@@H](CC(C)C)C(=O)N[C@@H](CC(C)C)C(=O)N[C@@H](C)C(=O)N[C@@H](CCC(N)=O)C(=O)N[C@@H](CCCCN)C(=O)N1CCC[C@H]1C(=O)N[C@@H](CO)C(=O)N[C@@H](CO)C(=O)NCC(=O)N[C@@H](C)C(=O)N1CCC[C@H]1C(=O)N1CCC[C@H]1C(=O)N1CCC[C@H]1C(=O)N[C@@H](CO)C(=O)O)C(C)C
B2: AT680 (peptide)
peptide: EGTFISDYSIAMDKIK([AEEA-AEEA-γGlu-C18 diacid])QQDFVNWLLAQKPSSGAPPPS-OH
modifications: N-terminus assumed
SMILES: CC[C@H](C)[C@H](NC(=O)[C@H](CO)NC(=O)[C@H](Cc1ccc(O)cc1)NC(=O)[C@H](CC(=O)O)NC(=O)[C@H](CO)NC(=O)[C@@H](NC(=O)[C@H](Cc1ccccc1)NC(=O)[C@@H](NC(=O)CNC(=O)[C@@H](N)CCC(=O)O)[C@@H](C)O)[C@@H](C)CC)C(=O)N[C@@H](C)C(=O)N[C@@H](CCSC)C(=O)N[C@@H](CC(=O)O)C(=O)N[C@@H](CCCCN)C(=O)N[C@H](C(=O)N[C@@H](CCCCNC(=O)COCCOCCNC(=O)COCCOCCNC(=O)CC[C@H](NC(=O)CCCCCCCCCCCCCCCCC(=O)O)C(=O)O)C(=O)N[C@@H](CCC(N)=O)C(=O)N[C@@H](CCC(N)=O)C(=O)N[C@@H](CC(=O)O)C(=O)N[C@@H](Cc1ccccc1)C(=O)N[C@H](C(=O)N[C@@H](CC(N)=O)C(=O)N[C@@H](Cc1c[nH]c2ccccc12)C(=O)N[C@@H](CC(C)C)C(=O)N[C@@H](CC(C)C)C(=O)N[C@@H](C)C(=O)N[C@@H](CCC(N)=O)C(=O)N[C@@H](CCCCN)C(=O)N1CCC[C@H]1C(=O)N[C@@H](CO)C(=O)N[C@@H](CO)C(=O)NCC(=O)N[C@@H](C)C(=O)N1CCC[C@H]1C(=O)N1CCC[C@H]1C(=O)N1CCC[C@H]1C(=O)N[C@@H](CO)C(=O)O)C(C)C)[C@@H](C)CC
B3: AT677 (peptide)
peptide: Glutaryl-GTFISDYSIAMDKIK(C16 diacid)QQDFVNWLLAQKPSSGAPPPS-OH
SMILES: CC[C@H](C)[C@H](NC(=O)[C@H](CO)NC(=O)[C@H](Cc1ccc(O)cc1)NC(=O)[C@H](CC(=O)O)NC(=O)[C@H](CO)NC(=O)[C@@H](NC(=O)[C@H](Cc1ccccc1)NC(=O)[C@@H](NC(=O)CNC(=O)CCCC(=O)O)[C@@H](C)O)[C@@H](C)CC)C(=O)N[C@@H](C)C(=O)N[C@@H](CCSC)C(=O)N[C@@H](CC(=O)O)C(=O)N[C@@H](CCCCN)C(=O)N[C@H](C(=O)N[C@@H](CCCCNC(=O)CCCCCCCCCCCCCCC(=O)O)C(=O)N[C@@H](CCC(N)=O)C(=O)N[C@@H](CCC(N)=O)C(=O)N[C@@H](CC(=O)O)C(=O)N[C@@H](Cc1ccccc1)C(=O)N[C@H](C(=O)N[C@@H](CC(N)=O)C(=O)N[C@@H](Cc1c[nH]c2ccccc12)C(=O)N[C@@H](CC(C)C)C(=O)N[C@@H](CC(C)C)C(=O)N[C@@H](C)C(=O)N[C@@H](CCC(N)=O)C(=O)N[C@@H](CCCCN)C(=O)N1CCC[C@H]1C(=O)N[C@@H](CO)C(=O)N[C@@H](CO)C(=O)NCC(=O)N[C@@H](C)C(=O)N1CCC[C@H]1C(=O)N1CCC[C@H]1C(=O)N1CCC[C@H]1C(=O)N[C@@H](CO)C(=O)O)C(C)C)[C@@H](C)CC
B4: AT675 (peptide)
peptide: [γGlu]GTFISDYSIAMDKIK(C16 diacid)QQDFVNWLLAQKPSSGAPPPS-OH
modifications: N-terminus assumed
SMILES: CC[C@H](C)[C@H](NC(=O)[C@H](CO)NC(=O)[C@H](Cc1ccc(O)cc1)NC(=O)[C@H](CC(=O)O)NC(=O)[C@H](CO)NC(=O)[C@@H](NC(=O)[C@H](Cc1ccccc1)NC(=O)[C@@H](NC(=O)CNC(=O)CC[C@H](N)C(=O)O)[C@@H](C)O)[C@@H](C)CC)C(=O)N[C@@H](C)C(=O)N[C@@H](CCSC)C(=O)N[C@@H](CC(=O)O)C(=O)N[C@@H](CCCCN)C(=O)N[C@H](C(=O)N[C@@H](CCCCNC(=O)CCCCCCCCCCCCCCC(=O)O)C(=O)N[C@@H](CCC(N)=O)C(=O)N[C@@H](CCC(N)=O)C(=O)N[C@@H](CC(=O)O)C(=O)N[C@@H](Cc1ccccc1)C(=O)N[C@H](C(=O)N[C@@H](CC(N)=O)C(=O)N[C@@H](Cc1c[nH]c2ccccc12)C(=O)N[C@@H](CC(C)C)C(=O)N[C@@H](CC(C)C)C(=O)N[C@@H](C)C(=O)N[C@@H](CCC(N)=O)C(=O)N[C@@H](CCCCN)C(=O)N1CCC[C@H]1C(=O)N[C@@H](CO)C(=O)N[C@@H](CO)C(=O)NCC(=O)N[C@@H](C)C(=O)N1CCC[C@H]1C(=O)N1CCC[C@H]1C(=O)N1CCC[C@H]1C(=O)N[C@@H](CO)C(=O)O)C(C)C)[C@@H](C)CC
B5: AT670 (peptide)
peptide: EGTFISDYSIAKDKIK(C16 diacid)QQDFVEWLLAQKPSSGAPPPS-OH
modifications: N-terminus assumed
SMILES: CC[C@H](C)[C@H](NC(=O)[C@H](CO)NC(=O)[C@H](Cc1ccc(O)cc1)NC(=O)[C@H](CC(=O)O)NC(=O)[C@H](CO)NC(=O)[C@@H](NC(=O)[C@H](Cc1ccccc1)NC(=O)[C@@H](NC(=O)CNC(=O)[C@@H](N)CCC(=O)O)[C@@H](C)O)[C@@H](C)CC)C(=O)N[C@@H](C)C(=O)N[C@@H](CCCCN)C(=O)N[C@@H](CC(=O)O)C(=O)N[C@@H](CCCCN)C(=O)N[C@H](C(=O)N[C@@H](CCCCNC(=O)CCCCCCCCCCCCCCC(=O)O)C(=O)N[C@@H](CCC(N)=O)C(=O)N[C@@H](CCC(N)=O)C(=O)N[C@@H](CC(=O)O)C(=O)N[C@@H](Cc1ccccc1)C(=O)N[C@H](C(=O)N[C@@H](CCC(=O)O)C(=O)N[C@@H](Cc1c[nH]c2ccccc12)C(=O)N[C@@H](CC(C)C)C(=O)N[C@@H](CC(C)C)C(=O)N[C@@H](C)C(=O)N[C@@H](CCC(N)=O)C(=O)N[C@@H](CCCCN)C(=O)N1CCC[C@H]1C(=O)N[C@@H](CO)C(=O)N[C@@H](CO)C(=O)NCC(=O)N[C@@H](C)C(=O)N1CCC[C@H]1C(=O)N1CCC[C@H]1C(=O)N1CCC[C@H]1C(=O)N[C@@H](CO)C(=O)O)C(C)C)[C@@H](C)CC
B6: AT676 (peptide)
peptide: [βGlu]GTFISDYSIAMDKIK(C16 diacid)QQDFVNWLLAQKPSSGAPPPS-OH
B7: AT674 (peptide)
peptide: EGTFISEYSI[Aib][Nle]EKIK(C16 diacid)QQEFVEWLLAQKPSSGAPPPS-OH
modifications: N-terminus assumed
SMILES: CCCC[C@H](NC(=O)C(C)(C)NC(=O)[C@@H](NC(=O)[C@H](CO)NC(=O)[C@H](Cc1ccc(O)cc1)NC(=O)[C@H](CCC(=O)O)NC(=O)[C@H](CO)NC(=O)[C@@H](NC(=O)[C@H](Cc1ccccc1)NC(=O)[C@@H](NC(=O)CNC(=O)[C@@H](N)CCC(=O)O)[C@@H](C)O)[C@@H](C)CC)[C@@H](C)CC)C(=O)N[C@@H](CCC(=O)O)C(=O)N[C@@H](CCCCN)C(=O)N[C@H](C(=O)N[C@@H](CCCCNC(=O)CCCCCCCCCCCCCCC(=O)O)C(=O)N[C@@H](CCC(N)=O)C(=O)N[C@@H](CCC(N)=O)C(=O)N[C@@H](CCC(=O)O)C(=O)N[C@@H](Cc1ccccc1)C(=O)N[C@H](C(=O)N[C@@H](CCC(=O)O)C(=O)N[C@@H](Cc1c[nH]c2ccccc12)C(=O)N[C@@H](CC(C)C)C(=O)N[C@@H](CC(C)C)C(=O)N[C@@H](C)C(=O)N[C@@H](CCC(N)=O)C(=O)N[C@@H](CCCCN)C(=O)N1CCC[C@H]1C(=O)N[C@@H](CO)C(=O)N[C@@H](CO)C(=O)NCC(=O)N[C@@H](C)C(=O)N1CCC[C@H]1C(=O)N1CCC[C@H]1C(=O)N1CCC[C@H]1C(=O)N[C@@H](CO)C(=O)O)C(C)C)[C@@H](C)CC

Target: T1, human GIP receptor
Experiment: cell-based or functional assay

Binder	cAMP agonism % Emax [%]	cAMP antagonism [nM]	cAMP antagonism % inhib [%]	cAMP antagonism pIC50
B1	0	0.136	94	9.9
B2	0	4.3	93	8.4
B3	0	0.447	93	9.4
B4	3	4.3	90	8.4
B5	0	10	92	8
B6	0	2.33	91	8.6
B7	0	0.447	93	9.4
